Laboratory results from the supplement of paper PMC10201428.
± gives the standard deviation of the averaged measurements.

Key:
[1] = test system: VchCAST RNA-guided transposition machinery (E. coli BL21(DE3) host, lacZ target); assay: relative integration efficiency (T-RL orientation) vs wild-type transposon end (log2 (normalized fold change)); transposon end mutated: right end (5 bp flank + 75 bp right end); higher = more efficient transposition
Method in brief: (§1)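 Co-transformation of E. coli BL21(DE3) combined a pUC57 mini-transposon donor, holding barcoded pools of 1549 left-end or 1849 right-end variants, with a T7-driven plasmid encoding a CRISPR array, tniQ-cas8-cas7-cas6 and tnsA-tnsB-tnsC. After plating with 0.1 mM IPTG at 37°C for 18 h, input plasmids and genomic integration junctions were PCR-amplified and Illumina-sequenced across two biological output replicates, with four reference barcodes. Relative integration efficiency is the normalised, log-transformed output/input barcode fold change.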

[2] = test system: VchCAST RNA-guided transposition machinery (E. coli BL21(DE3) host, lacZ target); assay: relative integration efficiency (T-LR orientation) vs wild-type transposon end (log2 (normalized fold change)); transposon end mutated: right end (5 bp flank + 75 bp right end); higher = more efficient transposition
Method in brief: as §1

| Sequence | relative integration efficiency (log2) [1] | relative integration efficiency (log2) [2] |
| --- | --- | --- |
| ACATTTGTTCATCCAACCATAAAATGATAATTACACCCATAAATGGATCATTATCACACCCAATTTAACTATAACGCTCTGATCATAGTCAGACCAACATTGCTACGACCCGTATTCGCACCGACAC | -2.36 ± 0.26 | -1.01 ± 0.52 |
| ACATTTGTTCATCCAACCATAAAATGATAATTACACCCATAAATTCATAATTATCACACCCAATTTAACTATAACGCTCTGATCATAGTCAGACCAACATTGCTACGACCCGTATTCGCACCGACAC | -2.84 ± 0.39 | -1.1 ± 0.16 |
| ACATTTGTTCATCCAACCATAAAATGATAATTACACCCATAAATTCATCATTATCACACCCAATTTAACTATAACGCTCTGATCATAGTCAGACCAACATTGCTACGACCCGTATTCGCACCGACAC | -2.92 ± 0.45 | -0.745 ± 0.19 |
| ACATTTGTTCATCCAACCATAAAATGATAATTACACCCATAAATTGATAATTATCACACCCAATTTAACTATAACGCTCTGATCATAGTCAGACCAACATTGCTACGACCCGTATTCGCACCGACAC | -1.42 ± 0.29 | 0.451 ± 0.23 |
| ACATTTGTTCATCCAACCATAAAATGATAATTACACCCATAAATTGATCATTATCACACCCAATTTAACTATAACGCTCTGATCATAGTCAGACCAACATTGCTACGACCCGTATTCGCACCGACAC | -2.44 ± 0.32 | 0.101 ± 0.12 |
| ACATTTGTTCTATCAACCATAAAATGATAATTACACCCATAAATTGATAATTATCACACCCATAAATTGATATTGCCTCTGATCATAGTCAGACCAACATTGCTACGACCCGTATTCGCACCGACAC | -1.53 ± 0.17 | -4.42 ± 0.25 |
| ACATTTGTTCTTACAACCATAAAATGATAATTACACCCATAAATTGATAATTATCACACCCATAAATTGATATTGCCTCTGATCATAGTCAGACCAACATTGCTACGACCCGTATTCGCACCGACAC | -0.825 ± 0.14 | -3.55 ± 0.75 |
| ACATTTGTTGAATCAACCATAAAATGATAATTACACCCATAAATTGATAATTATCACACCCATAAATTGATATTGCCTCTGATCATAGTCAGACCAACATTGCTACGACCCGTATTCGCACCGACAC | 0.38 ± 0.14 | 0.00973 ± 0.13 |
| ACATTTGTTGAATGTACCATAAAATGATAATTACACCCATAAATTGATAATTATCACACCCATAAATTGATATTGCCTCTGATCATAGTCAGACCAACATTGCTACGACCCGTATTCGCACCGACAC | -0.836 ± 0.071 | -1.92 ± 0.32 |
| ACATTTGTTGACAACCATAAAATGATAATTACACCCATAAATTGATAATTATCACACCCATAAATTGATATTGCCTCTGATCATAGTCAGACCAACATTGCTACGACCCGTATTCGCACCGACACTG | -7.09 ± 0.12 | -6.81 ± 1.7 |
| ACATTTGTTGAGCACACCATAAAATGATAATTACACCCATAAATTGATAATTATCACACCCATAAATTGATATTGCCTCTGATCATAGTCAGACCAACATTGCTACGACCCGTATTCGCACCGACAC | -0.523 ± 0.031 | -1.83 ± 0.7 |
| ACATTTGTTGAGCCAACCATAAAATGATAATTACACCCATAAATTGATAATTATCACACCCATAAATTGATATTGCCTCTGATCATAGTCAGACCAACATTGCTACGACCCGTATTCGCACCGACAC | -0.297 ± 0.0032 | -0.934 ± 0.11 |
| ACATTTGTTGATAAAACCATAAAATGATAATTAAACCCATAAATTGATAATTATCAAACCCATAAATTGATATTGCCTCTGATCATAGTCAGACCAACATTGCTACGACCCGTATTCGCACCGACAC | -0.472 ± 0.18 | -0.129 ± 0.36 |
| ACATTTGTTGATAAAACCATAAAATGATAATTAGACCCATAAATTGATAATTATCACACCCATAAATTGATATTGCCTCTGATCATAGTCAGACCAACATTGCTACGACCCGTATTCGCACCGACAC | -1.09 ± 0.15 | -1.02 ± 0.36 |
| ACATTTGTTGATAAAACCATAAAATGATTATTACACCCATAAATTGATAATTATCACACCCATAAATTGATATTGCCTCTGATCATAGTCAGACCAACATTGCTACGACCCGTATTCGCACCGACAC | -1.05 ± 0.087 | -0.755 ± 0.22 |
| ACATTTGTTGATAAAACCATAAAATGATTATTAGAAACCATAATCTGAAATTATCACACCCATAAATTGATATTGCCTCTGATCATAGTCAGACCAACATTGCTACGACCCGTATTCGCACCGACAC | -3.26 ± 0.065 | -2.22 ± 0.34 |
| ACATTTGTTGATAAAACCATAAAATGATTTTAAGAAACCATAATCTGAAATAATCACACCCATAAATTGATATTGCCTCTGATCATAGTCAGACCAACATTGCTACGACCCGTATTCGCACCGACAC | -3.13 ± 0.069 | -1.78 ± 0.24 |
| ACATTTGTTGATAAAACCATAAAATGATTTTTAGAAACCATAATCTGAAATTATCACACCCATAAATTGATATTGCCTCTGATCATAGTCAGACCAACATTGCTACGACCCGTATTCGCACCGACAC | -2.97 ± 0.17 | -2.56 ± 0.33 |

| Sequence | relative integration efficiency (log2) [1] | relative integration efficiency (log2) [2] |
| --- | --- | --- |
| ACATTTGTTGATAAAACCATACGTTGATTTTAAGAAACCATACGCTGAAATAATCACACCCATAAATTGATATTGCCTCTGATCATAGTCAGACCAACATTGCTACGACCCGTATTCGCACCGACAC | -6.06 ± 0.18 | -3.87 ± 0.6 |
| ACATTTGTTGATAAAACCATACGTTGATTTTACCACCCATAAATTGATAATTATCACACCCATAAATTGATATTGCCTCTGATCATAGTCAGACCAACATTGCTACGACCCGTATTCGCACCGACAC | -2.65 ± 0.17 | -2.98 ± 0.21 |
| ACATTTGTTGATAAAACCATACGTTGATTTTACGAAACCATACGCTGAAATAATCACACCCATAAATTGATATTGCCTCTGATCATAGTCAGACCAACATTGCTACGACCCGTATTCGCACCGACAC | -5.63 ± 0.18 | -3.87 ± 1.2 |
| ACATTTGTTGATAACACCATAAAATGATAATTACACCCATAAATTGATAATTATCACACCCATAAATTGATATTGCCTCTGATCATAGTCAGACCAACATTGCTACGACCCGTATTCGCACCGACAC | -0.41 ± 0.018 | -0.747 ± 0.13 |
| ACATTTGTTGATAACCAACGCCCCGTCGCCGGCACAAACGCCCGGTCGCCGGCTCAACAAACGCCCGGTCGCGGTACTCTGATCATAGTCAGACCAACATTGCTACGACCCGTATTCGCACCGACAC | -8.29 ± 1.1 | -6.65 ± 2 |
| ACATTTGTTGATAACCAACGCCCCGTCGCCGGCACAAACGCCCGGTCGCCGGCTCACACCCATAAATTGATATTGCCTCTGATCATAGTCAGACCAACATTGCTACGACCCGTATTCGCACCGACAC | -7.79 ± 0.73 | < -10 |
| ACATTTGTTGATAACCAACGCCCCGTCGCCGGCCACCCATAAATTGATAATTATCAACAAACGCCCGGTCGCGGTACTCTGATCATAGTCAGACCAACATTGCTACGACCCGTATTCGCACCGACAC | -7.3 ± 0.31 | -3.55 ± 0.48 |
| ACATTTGTTGATAACCACATAAAATGATAATTACACCCATAAATTGATAATTATCACACCCATAAATTGATATTGCCTCTGATCATAGTCAGACCAACATTGCTACGACCCGTATTCGCACCGACAC | -0.808 ± 0.095 | -1.28 ± 0.093 |
| ACATTTGTTGATACAAAAATAAAATGATAATTACACCCATAAATTGATAATTATCACACCCATAAATTGATATTGCCTCTGATCATAGTCAGACCAACATTGCTACGACCCGTATTCGCACCGACAC | -0.328 ± 0.18 | -0.268 ± 0.48 |
| ACATTTGTTGATACAAAACGAAAATGATAATTACACCCATAAATTGATAATTATCACACCCATAAATTGATATTGCCTCTGATCATAGTCAGACCAACATTGCTACGACCCGTATTCGCACCGACAC | -3.95 ± 0.13 | -6.65 ± 0.98 |
| ACATTTGTTGATACAAAACGCCCCGTCGCCGGCACAAACGCCCGGTCGCCGGCGACACAAACGCCCGGTCGCGGTAAGAGGATCATAGTCAGACCAACATTGCTACGACCCGTATTCGCACCGACAC | -7.52 ± 1 | -5.49 ± 0.46 |
| ACATTTGTTGATACAAACATAAAATGATAATTACACACATAAATTGATAATTATCACACACATAAATTGATATTGCCTCTGATCATAGTCAGACCAACATTGCTACGACCCGTATTCGCACCGACAC | -1.41 ± 0.22 | -0.182 ± 0.14 |
| ACATTTGTTGATACAACAATAAAATGATAATTACACCAATAAATTGATAATTATCACACCAATAAATTGATATTGCCTCTGATCATAGTCAGACCAACATTGCTACGACCCGTATTCGCACCGACAC | -0.726 ± 0.084 | -0.547 ± 0.67 |
| ACATTTGTTGATACAACACGCAAATGATAATTACACCCATAAATTGATAATTATCACACCCATAAATTGATATTGCCTCTGATCATAGTCAGACCAACATTGCTACGACCCGTATTCGCACCGACAC | -4.368 ± 0.0069 | -4.89 ± 2.5 |
| ACATTTGTTGATACAACACTAAAATGATAATTACACCCATAAATTGATAATTATCACACCCATAAATTGATATTGCCTCTGATCATAGTCAGACCAACATTGCTACGACCCGTATTCGCACCGACAC | -1.85 ± 0.15 | -2.04 ± 0.74 |
| ACATTTGTTGATACAACCAAAAAATGATAATTACACCCAAAAATTGATAATTATCACACCCAAAAATTGATATTGCCTCTGATCATAGTCAGACCAACATTGCTACGACCCGTATTCGCACCGACAC | -0.669 ± 0.11 | 0.0409 ± 0.087 |
| ACATTTGTTGATACAACCAAAAAATGATAATTACACCCATAAATTGATAATAATGACACCGAATTTAACTATAACGCTCTGATCATAGTCAGACCAACATTGCTACGACCCGTATTCGCACCGACAC | -1.3 ± 0.18 | 2.17 ± 0.081 |
